Experimental data published in US20220195068A1 (TENEOBIO, published 2022).

Molecular target: T1, human PSMA (Prostate Specific Membrane Antigen, Glutamate Carboxypeptidase II) on cells (human, UniProt Q04609 1-750)
T1 construct: whole, on cells; the cell line is named under assay; also called cell surface expressed PSMA; FOLH1
Assay: flow cytometry on LNCaP cells
Description: Briefly, 50,000 target cells were stained with a dilution series of purified UniAbs™ for 30 minutes at 4° C. Following incubation, the cells were washed twice with flow cytometry buffer (1X PBS, 1% BSA, 0.1% NaN₃) and stained with goat F(ab')₂ anti-human IgG conjugated to R-phycoerythrin (PE) (Southern Biotech, cat. #2042-09) to detect cell-bound antibodies. After a 20-minute incubation at 4° C., the cells were washed twice with flow cytometry buffer and the mean fluorescence intensity (MFI) was measured by flow cytometry. The MFI of cells stained with secondary antibody alone were used for determination of background signal and binding of each antibody was converted to fold over background. Binding to cynomolgus PSMA positive cells was determined using the same protocol with the following modifications: the target cells were from Freestyle 293-F cells (ThermoFisher R79007) transiently transfected to express the extracellular domain of cynomolgus PSMA. In some experiments EC50 values were calculated using GraphPad Prism 7.

T1 sequence (Q04609 whole entry): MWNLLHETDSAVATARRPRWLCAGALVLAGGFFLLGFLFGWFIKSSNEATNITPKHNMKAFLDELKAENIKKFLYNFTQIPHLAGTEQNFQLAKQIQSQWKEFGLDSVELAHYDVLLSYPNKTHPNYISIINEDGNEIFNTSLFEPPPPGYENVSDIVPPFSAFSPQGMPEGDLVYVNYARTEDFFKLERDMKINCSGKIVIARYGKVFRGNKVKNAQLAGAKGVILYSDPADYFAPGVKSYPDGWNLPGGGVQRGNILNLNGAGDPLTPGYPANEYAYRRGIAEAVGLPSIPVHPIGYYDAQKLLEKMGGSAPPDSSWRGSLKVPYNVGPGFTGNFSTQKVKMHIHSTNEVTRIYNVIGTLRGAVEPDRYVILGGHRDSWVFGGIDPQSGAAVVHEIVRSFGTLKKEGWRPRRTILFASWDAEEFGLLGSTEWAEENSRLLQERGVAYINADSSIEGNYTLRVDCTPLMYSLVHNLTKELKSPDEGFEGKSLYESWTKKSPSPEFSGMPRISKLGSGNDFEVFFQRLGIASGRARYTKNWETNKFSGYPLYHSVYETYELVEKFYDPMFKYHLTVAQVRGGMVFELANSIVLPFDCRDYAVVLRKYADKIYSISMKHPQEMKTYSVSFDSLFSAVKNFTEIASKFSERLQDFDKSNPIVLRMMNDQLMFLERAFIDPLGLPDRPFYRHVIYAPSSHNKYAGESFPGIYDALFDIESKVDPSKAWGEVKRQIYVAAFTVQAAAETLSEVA

Row | Binder | fold over the background MFI signal [fold over background]
1 | anti-PSMA heavy chain antibody clone ID 325748 (antibody, V domains shown, heavy chain-only antibody (UniAb), no light chain) VH: QVQLVESGGGVVQPGRSLRLSCAASGFSFSSYGMHWVRQAPGKGLEGVAVIWYDGSNRYYADSVKGRFTISRDNSKNTLYLQMNSLRAEDTAVYYCAREPRIGYYYESSGYYSLDYRGQGTLVTVSS | 193
2 | anti-PSMA heavy chain antibody clone ID 326084 (antibody, V domains shown, heavy chain-only antibody (UniAb), no light chain) VH: QVQLVESGGGVVQPGRSLRLSCAASGFSFSSYGMHWVRQAPGKGLEGVAVIWYDGSNRYYADSVKGRFTISRDNSKNTLYLQMNSLRAEDTAVYYCAREPRIGYYYDSSGYYSLDYRGQGTLVTVSS | 125
3 | anti-PSMA heavy chain antibody clone ID 325836 (antibody, V domains shown, heavy chain-only antibody (UniAb), no light chain) VH: QVQLVESGGGVVQPGRSLRLSCAASGFSFRSYGMHWVRQAPGKGLEWVAVIWYDGSNKYYADSVKGRFTISRDYSKNTLYLQMNSLRAEDTAVYYCAREPRIGYYYDSSGYDSLDYRGQGTLVTVSS | 163
4 | anti-PSMA heavy chain antibody clone ID 345493 (antibody, V domains shown, heavy chain-only antibody (UniAb), no light chain) VH: QVQLVESGGGVVQPGRSLRLSCAASGFSFSRYGMHWVRQAPGKGLEWVAVIWYDGSNRYYADSVKGRFTISRDNSKNTLYLQMNSLRAEDTAVYYCAREPRIGYYYESSGYYSLDYRGQGTLVTVSS | 101
5 | anti-PSMA heavy chain antibody clone ID 345480 (antibody, V domains shown, heavy chain-only antibody (UniAb), no light chain) VH: QVQLVESGGGVVQPGRSLRLSCAASGFSFSSYGMHWVRQAPGKGLEWVAVIWYDGSNRYYADSVKGRFTISRDNSKNTLYLQMNSLRAEDTAVYYCAREPRIGYYYESSGYYSLDYRGQGTLVTVSS | 47
6 | anti-PSMA heavy chain antibody clone ID 326116 (antibody, V domains shown, heavy chain-only antibody (UniAb), no light chain) VH: QVQLVESGGGVVQPGRSLRLSCAASGFSFSRYGMHWVRQAPGKGLEGVAVISYDGSNKYYADSVKGRFTISRDYSKNTLYLQMNSLRAEDTAVYYCAREPRIGYYYDSSGYDSLDYRGQGTLVTVSS | 38
7 | anti-PSMA heavy chain antibody clone ID 326029 (antibody, V domains shown, heavy chain-only antibody (UniAb), no light chain) VH: QVQLVESGGGVVQPGRSLRLSCAASGFSFSRYGMHWVRQAPGKGLEWVAVISYDGSNKYYADSVKGRFTISRDNSKNTLYLQMNSLRAEDTAVYYCAREPRVGYYYETSGYYSLDYRGQGTLVTVSS | 109
8 | anti-PSMA heavy chain antibody clone ID 326087 (antibody, V domains shown, heavy chain-only antibody (UniAb), no light chain) VH: QVQLVESGGGVVQPGRSLRLSCAASGFIFRSYGMHWVRQAPGKGPEWVAVIWYDGSNKYYADSVKGRFTISRDNSKNTLYLQMNSLRAEDTAVYYCAREPRIGYYYDSSGYDSLDYRGQGTLVTVSS | 129
9 | anti-PSMA heavy chain antibody clone ID 325742 (antibody, V domains shown, heavy chain-only antibody (UniAb), no light chain) VH: QVQLVESGGGVVQPGRSLRLSCAASGFSFSSYGMHWVRQAPGKGLEWVAVIWYDGSNKYYADSVKGRFTISRDYSKNTLYLQMNSLRAEDTAVYYCAREPRIGYYYESSGYDSLDYRGQGTLVTVSS | 200
10 | anti-PSMA heavy chain antibody clone ID 345461 (antibody, V domains shown, heavy chain-only antibody (UniAb), no light chain) VH: QVQLVESGGGVVQPGRSLRLSCAASGFSFTSYGMHWVRQAPGKGLEGVAVIWYDGSNRYYADSVKGRFTISRDNSKNTLYLQMNSLRAEDTAVYYCAREPRIGYYYESSGYYSLDYRGQGTLVTVSS | 102
11 | anti-PSMA heavy chain antibody clone ID 326028 (antibody, V domains shown, heavy chain-only antibody (UniAb), no light chain) VH: QVQLVESGGGVVQPGRSLRLSCAASGFSFRSYGMHWVRQAPGKGLEWVAVISYDGSNKYYADSVKGRFTISRDYSKNTLYLQMNSLRAEDTAVYYCAREPRIGYYYDSSGYDSLDYRGQGTLVTVSS | 117
12 | anti-PSMA heavy chain antibody clone ID 326027 (antibody, V domains shown, heavy chain-only antibody (UniAb), no light chain) VH: QVQLVESGGGVVQPGRSLRLSCAASGFSFRSYGMHWVRQAPGKGLEWVAVIWYDGSNKYYADSVKGRFTISRDNSKNTLYLQMNSLRAEDTAVYYCAREPRIGYYYDSSGYDSLDYRGQGTLVTVSS | 138
13 | anti-PSMA heavy chain antibody clone ID 345485 (antibody, V domains shown, heavy chain-only antibody (UniAb), no light chain) VH: QVQLVESGGGVVQPGRSLRLSCAASGFSFRSYGMHWVRQAPGKGLEWVAVIWYDGSNKYYADSVKGRFTISRDNSKNTMYLQMNSLRAEDTAVYYCAREPRIGYYYESSGYYSLDYRGQGTLVTVSS | 71
14 | anti-PSMA heavy chain antibody clone ID 325940 (antibody, V domains shown, heavy chain-only antibody (UniAb), no light chain) VH: QVQLVESGGGVVQPGRSLRLSCAASGFIFRSYGMHWVRQAPGKGPEWVAVIWYDGSNKYYADSVKGRFTISRDNSKNTLYLQMNSLRAEDTAVYYCAREPRIGYYYESSGYYSLDYRGQGTLVTVSS | 169
15 | anti-PSMA heavy chain antibody clone ID 325867 (antibody, V domains shown, heavy chain-only antibody (UniAb), no light chain; also called Antibody 1) VH: QVQLVESGGGVVQPGRSLRLSCAASGFSFRSYGMHWVRQAPGKGLEWVAVIWYDGSNKYYADSVKGRFTISRDYSKNTLYLQMNSLRAEDTAVYYCAREPRIGYYYESSGYDSLDYRGQGTLVTVSS | 210
16 | anti-PSMA heavy chain antibody clone ID 345490 (antibody, V domains shown, heavy chain-only antibody (UniAb), no light chain) VH: QVQLVESGGGLVKPGGSLRLSCAASGFSFSSYGMHWVRQAPGKGLEGVAVIWYDGSNRYYADSVKGRFTISRDNSKNTLYLQMNSLRAEDTAVYYCAREPRIGYYYESSGYYSLDYRGQGTLVTVSS | 80
17 | anti-PSMA heavy chain antibody clone ID 345436 (antibody, V domains shown, heavy chain-only antibody (UniAb), no light chain) VH: QVQLVESGGGVVQPGRSLRLSCAASGFSFSRYGMHWVRQAPGKGLEGVAVIWYDGSNKYYADSVKGRFTISRDNSKNTLYLQMNSLRAEDTAVYYCAREPRIGYYYESSGYYSLDYRGQGTLVTVSS | 87
18 | anti-PSMA heavy chain antibody clone ID 345443 (antibody, V domains shown, heavy chain-only antibody (UniAb), no light chain) VH: QVQLVESGGGVVQPGRSLRLSCAASGFSFSSYGMHWVRQAPGKGLEGVAVIWYDGSNRYYADSVKGRFTISRDNSKNTLFLQMNSLRAEDTAVYYCAREPRIGYYYESSGYYSLDYRGQGTLVTVSS | 84
19 | anti-PSMA heavy chain antibody clone ID 345444 (antibody, V domains shown, heavy chain-only antibody (UniAb), no light chain) VH: QVQLVESGGGVVQPGRSLRLSCAASGFTFSSYGMHWVRQAPGKGLEGVAVIWYDGSNRYYADSVKGRFTISRDNSKNTLYLQMNSLRAEDTAVYYCAREPRIGYYYESSGYYSLDYRGQGTLVTVSS | 23
20 | anti-PSMA heavy chain antibody clone ID 345421 (antibody, V domains shown, heavy chain-only antibody (UniAb), no light chain) VH: QVQLVESVGGVVQPGRSLRLSCAASGFSFSSYGMHWVRQAPGKGLEGVAVIWYDGSNRYYADSVKGRFTISRDNSKNTLYLQMNSLRAEDTAVYYCAREPRIGYYYESSGYYSLDYRGQGTLVTVSS | 22
21 | anti-PSMA heavy chain antibody clone ID 345438 (antibody, V domains shown, heavy chain-only antibody (UniAb), no light chain) VH: QVQLVESGGGVVQPGRSLRLSCAASGFSFSSYGMHWVRQAPGKGPEWVAVIWYDGSNKYYADSVKGRFTISRDNSKNTLYLQMNSLRAEDTAVYYCAREPRIGYYYESSGYYSLDYRGQGTLVTVSS | 13
22 | anti-PSMA heavy chain antibody clone ID 345482 (antibody, V domains shown, heavy chain-only antibody (UniAb), no light chain) VH: QVQLVESGGGVVQPGRSLRLSCAASGFSFSSYGMHWVRQAPGKGLEGVAVIWYDGSNRYYADSVKGRFTISRDSSKNTLYLQMNSLRAEDTAVYYCAREPRIGYYYESSGYYSLDYRGQGTLVTVSS | 80
23 | anti-PSMA heavy chain antibody clone ID 345447 (antibody, V domains shown, heavy chain-only antibody (UniAb), no light chain) VH: QVQLVESGGGVVQPGRSLRLSCAASGFSFSSYGMHWVRQAPGKGLEGVAVISYDGSNRYYADSVKGRFTISRDNSKNTLYLQMNSLRAEDTAVYYCAREPRIGYYYESSGYYSLDYRGQGTLVTVSS | 14
24 | anti-PSMA heavy chain antibody clone ID 345463 (antibody, V domains shown, heavy chain-only antibody (UniAb), no light chain) VH: QVQLVESGGGVVQPGRSLRLSCAASGFIFRSYGMHWVRQAPGKGPEWVAVIWYDGSNKYYADSVKGRFTISRDNSKNTLYLQMNSLRAEDTAVYYCAREPRIGYYYESSGYYSLDYRGQGTLVTVSS | 68
25 | anti-PSMA heavy chain antibody clone ID 346172 (antibody, V domains shown, heavy chain-only antibody (UniAb), no light chain) VH: QLQLQESGPGLVKPSETLSLTCTVSGGSISSSSYYWGWIRQPPGKGLEWIGSIDYSGYTYYNPSLKSRVTISVDTSKNQFSLKLSSVTAADTAVYNCARHKAATADFDYRGQGTLVTVSS | 216
26 | anti-PSMA heavy chain antibody clone ID 346165 (antibody, V domains shown, heavy chain-only antibody (UniAb), no light chain) VH: QLQLQESGPGLVKPSETLSLTCTVSGGSISSSSYYWGWIRQPPGKGLEWIGSVDYSGYTYYNPSLQSRVTISVDTSKNQFSLKLSSVTAADTAVYNCARHKAATADFDYRGQGTLVTVSS | 243
27 | anti-PSMA heavy chain antibody clone ID 346181 (antibody, V domains shown, heavy chain-only antibody (UniAb), no light chain; also called HCAb 346181) VH: QLQLQESGPGLVKPSETLSLTCTVSGGSISSSNYFWGWIRQSPGKGLEWIGSIDYSGYTYYNPSLKSRVTISVDTSKNQFSLKLSSVTAADTAVYNCARHKAATADFDYRGQGTLVTVSS | 264
28 | anti-PSMA heavy chain antibody clone ID 325920 (antibody, V domains shown, heavy chain-only antibody (UniAb), no light chain; also called Antibody 2) VH: QLQLQESGPGLVKPSETLSLTCTVSGGSISSSSYYWGWIRQPPGKGLEWIGSIDYSGYTYYNPSLQSRVTISVDTSKNQFSLKLSSVTAADTAVYNCARHKAATADFDYRGQGTLVTVSS | 282
29 | anti-PSMA heavy chain antibody clone ID 326109 (antibody, V domains shown, heavy chain-only antibody (UniAb), no light chain) VH: QLQLQESGPGLVKPSETLSLTCTVSGGSISSNSYYWGWIRQSPGKGLEWLGSIYDSGSTHYNPSLKSRVIISGDTSKNQFSLKLSSVTAADTAVYYCARHKAATADFDYRGQGTLVTVSS | 25
